Assays:
[1] = target: SARS-CoV-2-S-RBD-mmH (SARS-CoV-2); conditions: remark: other sources report otherwise
[2] = target: SARS-CoV-2 RBD extracellular domain expressed with a C-terminal myc-myc-hexahistidine tag (SARS-COV-2 RBD-MMH) (SARS-CoV-2); conditions: remark: other sources report otherwise

| Binder | Binding Signal (absorbance at 450 nm) (absorbance at 450 nm) [1] | t½ (dissociative half-life) [2] |
| --- | --- | --- |
| mAb10998 (antibody, V domains shown) VH: EVQLVESGGGLVHPGGSLRLSCAASGLTVSSNYMSWVRQAPGKGLEWVSVIYSGGSTYYADSVKGRFTISRHNSKNTLFLQMNSLRAEDTAVYYCARDRPITGTTLDVWGQGTTVTVSS VL: DIQMTQSPSSLFASVGDRVTITCRASQSISSYLNWYQQKPGKAPKLLIYAASSLQSGVPSRFSGSGSGTDFTLTISSLQPEDFAFYYCQQTYSTPPITFGQGTRLEIK | 2.83 | 0.5 min |
| mAb11006 (antibody, V domains shown) VH: EVQLVESGGGLVQPGGSLRLSCAASGFIVSRNYMSWVRQAPGKGLEWVSVIYSGGSTFYADSVKGRFTISRHNSKNTLYLQMNSLKAEDTAVYYCARELRGYFDYWGQGTLVTVSS VL: DIQLTQSPSFLSASVGDRVTITCWASQGISSYLAWYQQKPGKAPKLLIYAASTLQSGVPSRFSGSGSGTEFTLTISSLQPEDFATYYCQLLNSYPYTFGQGTKLEIK | 2.62 | 31.5 min |
| mAb11008 (antibody, V domains shown) VH: EVQLVESGGGLVQPGGSLRLSCAASGFTVSSNYMTWVRQAPGKGLEWVSVIYSGGSTFYADSVKGRFTISRHNSENTLYLQMNSLRAEDTAVYYCARDLAAAGTDYWGQGALVTVSS VL: DIQLTQSPSFLSASVGDRVTITCWASQGISSYLAWYQQKPGKAPKLLIYAASTLQSGVPSRFSGSGSGTEFTLTISSLQPDDFATYYCQHLNSYLYTFGQGTKLEIK | 2.91 | 2.9 min |
| mAb11004 (antibody, V domains shown) VH: QVQLVESGGGVVQPGRSLRLSCVASGFTFSIYGMDWVRQAPGKGLEWVAVISYDGSNKYYADSVKGRFTISRDNSKNTLYLQMNSLRPEDTAVYYCAKDREAAADAFDIWGQGTMVTVSS VL: DIQMTQSPSSVSASVGDRVTITCRASQGISSWLAWYQQKPGKAPKLLIYAASSLHSGVPSRFSGSGSGTDFTLTISSLQPEDFATYYCQQANSFRLTFGGGTKVEIK | 2.91 | 3.7 min |

— patent publication US20230348569A1
